Consider 8 molecules from US20240400659A1 (BIOATLA, published 2024).

Assay [1] deals with T1, Apolipoprotein E3 (human, UniProt P02649 19-317).
T1 construct: also called ApoE3; hApoE3
The assay is described as follows: pH affinity ELISA, coated hApoE3. A general note: ELISA stands for enzyme-linked immunosorbent assay.

The target in assay [2] is T2, Apolipoprotein E4 (human, UniProt P02649 19-317).
T2 construct: also called ApoE4; hApoE4
Briefly: pH affinity ELISA, coated hApoE4.

The target of assay [3] is T3, mouse ApoE (mouse, UniProt P08226 19-311, limits assumed).
T3 construct: also called msApoE; ms ApoE
T3 sequence (looked up): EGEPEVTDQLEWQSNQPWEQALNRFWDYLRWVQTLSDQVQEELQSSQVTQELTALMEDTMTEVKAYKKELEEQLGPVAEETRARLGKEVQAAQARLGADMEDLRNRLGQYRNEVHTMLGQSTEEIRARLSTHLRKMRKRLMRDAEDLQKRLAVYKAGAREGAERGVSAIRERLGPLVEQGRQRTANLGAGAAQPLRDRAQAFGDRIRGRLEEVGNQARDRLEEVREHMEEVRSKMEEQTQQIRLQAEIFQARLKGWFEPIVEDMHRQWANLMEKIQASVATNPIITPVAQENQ
Briefly: pH affinity ELISA, coated mouse ApoE.

The target of assay [4] is T1, Apolipoprotein E3. The assay is described as follows: pH affinity ELISA, coated hApoE3, pH 6.0.
The target in assay [5] is T1, Apolipoprotein E3. The assay is described as follows: pH affinity ELISA, coated hApoE3, pH 7.4.
For assay [6], the target named is T2, Apolipoprotein E4. Briefly: pH affinity ELISA, coated hApoE4, pH 6.0.
In assay [7] the target is T2, Apolipoprotein E4. Briefly: pH affinity ELISA, coated hApoE4, pH 7.4.
The target of assay [8] is T3, mouse ApoE. Briefly: pH affinity ELISA, coated mouse ApoE, pH 6.0.
In assay [9] the target is T3, mouse ApoE. Briefly: pH affinity ELISA, coated mouse ApoE, pH 7.4.

T1 sequence (P02649 19-317 limits assumed): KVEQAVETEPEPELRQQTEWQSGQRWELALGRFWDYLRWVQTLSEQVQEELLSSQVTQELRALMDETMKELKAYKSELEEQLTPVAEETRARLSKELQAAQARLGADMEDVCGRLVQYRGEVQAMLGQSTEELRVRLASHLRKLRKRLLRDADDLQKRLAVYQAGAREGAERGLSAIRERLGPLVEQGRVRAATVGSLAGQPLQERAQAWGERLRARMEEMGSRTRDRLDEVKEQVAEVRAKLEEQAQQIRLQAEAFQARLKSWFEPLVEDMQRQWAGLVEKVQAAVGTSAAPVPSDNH
T2 sequence (P02649 19-317 C130R limits assumed): as the sequence (P02649 19-317 limits assumed) above, with C112R counted along it

B1: Anti-ApoE wildtype antibody BAP191.01-WT (antibody, V domains shown)
VH: QIQLVQSGPELKKPGETVKISCKASGYTFTTAGMQWVQKMPGKGFKWIGWINTHSGEPKYAEDFKGRFAFSLETSASTAYLQISNLKNEDTATYFCARMGGYAMDYWGQGTSVTVSS
VL: DIKLTQSPSSMYASLGERVTITCKASEDINSYLSWFQQKPGKSPKTLIYRANRLVDGVPSRFSGSGSGQDYSLTISSLEYEDMGIYYCLQYDEFPLTFGAGTKLELT
notes: also called benchmark; parent
As usually defined, the EC50 is the concentration at which the effect is half-maximal. Read a high EC50 as lower potency in that assay. As to B1, the “Ratio pH 7.4/6.0 (EC50)” value in the assay with Apolipoprotein E3 [1] is 0.73 ratio; in the assay with Apolipoprotein E4 [2], 0.46 ratio; in the assay with mouse ApoE [3] it was 0.96 ratio. Also, the EC50 in the assay with Apolipoprotein E3 [4] was determined as 0.136 µg/mL; with Apolipoprotein E3 [5], 0.0991 µg/mL; with Apolipoprotein E4 [6] it was 0.0797 µg/mL; in the assay with Apolipoprotein E4 [7] it was 0.0368 µg/mL; in the assay with mouse ApoE [8], 0.0926 µg/mL; with mouse ApoE [9], 0.089 µg/mL.

B2: BAP191.01-CPE-HC-R098E (antibody, V domains shown)
VH: QIQLVQSGPELKKPGETVKISCKASGYTFTTAGMQWVQKMPGKGFKWIGWINTHSGEPKYAEDFKGRFAFSLETSASTAYLQISNLKNEDTATYFCAEMGGYAMDYWGQGTSVTVSS
VL: DIKLTQSPSSMYASLGERVTITCKASEDINSYLSWFQQKPGKSPKTLIYRANRLVDGVPSRFSGSGSGQDYSLTISSLEYEDMGIYYCLQYDEFPLTFGAGTKLELT
For the molecule B2, the results for the “Ratio pH 7.4/6.0 (EC50)” value in the assay with Apolipoprotein E4 [2] and with mouse ApoE [3] were 4.33 ratio and 2.53 ratio, respectively. The EC50 with Apolipoprotein E4 [6] worked out at 4.36 µg/mL; in the assay with Apolipoprotein E4 [7], 18.9 µg/mL; with mouse ApoE [8], 0.163 µg/mL; in the assay with mouse ApoE [9], 0.413 µg/mL.

B3: BAP191.01-CPE-HC-I051D (antibody, V domains shown)
VH: QIQLVQSGPELKKPGETVKISCKASGYTFTTAGMQWVQKMPGKGFKWIGWDNTHSGEPKYAEDFKGRFAFSLETSASTAYLQISNLKNEDTATYFCARMGGYAMDYWGQGTSVTVSS
VL: DIKLTQSPSSMYASLGERVTITCKASEDINSYLSWFQQKPGKSPKTLIYRANRLVDGVPSRFSGSGSGQDYSLTISSLEYEDMGIYYCLQYDEFPLTFGAGTKLELT
notes: also called BAP191.01-CPE-HC-1051D
In the case of B3, the “Ratio pH 7.4/6.0 (EC50)” value in the assay with Apolipoprotein E4 [2] stood at 3.07 ratio; with mouse ApoE [3], 3.76 ratio. Further, the EC50 was 1.54 µg/mL with Apolipoprotein E4 [6], 4.75 µg/mL with Apolipoprotein E4 [7], 0.104 µg/mL in the assay with mouse ApoE [8] and 0.39 µg/mL with mouse ApoE [9].

B4: BAP191.01-CPE-LC-P095D (antibody, V domains shown)
VH: QIQLVQSGPELKKPGETVKISCKASGYTFTTAGMQWVQKMPGKGFKWIGWINTHSGEPKYAEDFKGRFAFSLETSASTAYLQISNLKNEDTATYFCARMGGYAMDYWGQGTSVTVSS
VL: DIKLTQSPSSMYASLGERVTITCKASEDINSYLSWFQQKPGKSPKTLIYRANRLVDGVPSRFSGSGSGQDYSLTISSLEYEDMGIYYCLQYDEFDLTFGAGTKLELT
On to B4, for which the “Ratio pH 7.4/6.0 (EC50)” value was found to be 1.27 ratio with Apolipoprotein E3 [1], 1.65 ratio with Apolipoprotein E4 [2] and 1.67 ratio with mouse ApoE [3]. Also, the EC50 with Apolipoprotein E3 [4] came to 0.245 µg/mL; with Apolipoprotein E3 [5], 0.311 µg/mL; in the assay with Apolipoprotein E4 [6], 0.0893 µg/mL; with Apolipoprotein E4 [7] it was 0.147 µg/mL; with mouse ApoE [8], 0.146 µg/mL; in the assay with mouse ApoE [9], 0.244 µg/mL.

B5: BAP191.01-CPE-HC-M104E (antibody, V domains shown)
VH: QIQLVQSGPELKKPGETVKISCKASGYTFTTAGMQWVQKMPGKGFKWIGWINTHSGEPKYAEDFKGRFAFSLETSASTAYLQISNLKNEDTATYFCARMGGYAEDYWGQGTSVTVSS
VL: DIKLTQSPSSMYASLGERVTITCKASEDINSYLSWFQQKPGKSPKTLIYRANRLVDGVPSRFSGSGSGQDYSLTISSLEYEDMGIYYCLQYDEFPLTFGAGTKLELT
As to B5, the figures for the “Ratio pH 7.4/6.0 (EC50)” value in the assay with Apolipoprotein E3 [1], with Apolipoprotein E4 [2] and with mouse ApoE [3] were 2.95 ratio, 18400 ratio and 2.25 ratio, respectively. Also, the EC50 turned out to be 3.13 µg/mL with Apolipoprotein E3 [4]; 9.25 µg/mL with Apolipoprotein E3 [5]; 4.2 µg/mL with Apolipoprotein E4 [6]; 68700 µg/mL with Apolipoprotein E4 [7]; 1.09 µg/mL with mouse ApoE [8]; 2.45 µg/mL in the assay with mouse ApoE [9].

B6: BAP191.01-CPE-LC-Y091D (antibody, V domains shown)
VH: QIQLVQSGPELKKPGETVKISCKASGYTFTTAGMQWVQKMPGKGFKWIGWINTHSGEPKYAEDFKGRFAFSLETSASTAYLQISNLKNEDTATYFCARMGGYAMDYWGQGTSVTVSS
VL: DIKLTQSPSSMYASLGERVTITCKASEDINSYLSWFQQKPGKSPKTLIYRANRLVDGVPSRFSGSGSGQDYSLTISSLEYEDMGIYYCLQDDEFPLTFGAGTKLELT
Regarding B6, the “Ratio pH 7.4/6.0 (EC50)” value with Apolipoprotein E4 [2] is 1.79 ratio. Moreover, the EC50 worked out at 0.084 µg/mL with Apolipoprotein E4 [6] and 0.15 µg/mL with Apolipoprotein E4 [7].

B7: BAP191-01-CPE-HC-M034D (antibody, V domains shown)
VH: QIQLVQSGPELKKPGETVKISCKASGYTFTTAGDQWVQKMPGKGFKWIGWINTHSGEPKYAEDFKGRFAFSLETSASTAYLQISNLKNEDTATYFCARMGGYAMDYWGQGTSVTVSS
VL: DIKLTQSPSSMYASLGERVTITCKASEDINSYLSWFQQKPGKSPKTLIYRANRLVDGVPSRFSGSGSGQDYSLTISSLEYEDMGIYYCLQYDEFPLTFGAGTKLELT
In the case of B7, the “Ratio pH 7.4/6.0 (EC50)” value in the assay with Apolipoprotein E4 [2] was 3.01 ratio; with mouse ApoE [3] it was 3.71 ratio. Moreover, the EC50 was 0.685 µg/mL in the assay with Apolipoprotein E4 [6], 2.06 µg/mL with Apolipoprotein E4 [7], 0.105 µg/mL with mouse ApoE [8] and 0.389 µg/mL with mouse ApoE [9].

B8: BAP191.01-CPE-HC-M099E (antibody, V domains shown)
VH: QIQLVQSGPELKKPGETVKISCKASGYTFTTAGMQWVQKMPGKGFKWIGWINTHSGEPKYAEDFKGRFAFSLETSASTAYLQISNLKNEDTATYFCAREGGYAMDYWGQGTSVTVSS
VL: DIKLTQSPSSMYASLGERVTITCKASEDINSYLSWFQQKPGKSPKTLIYRANRLVDGVPSRFSGSGSGQDYSLTISSLEYEDMGIYYCLQYDEFPLTFGAGTKLELT
In the case of B8, the “Ratio pH 7.4/6.0 (EC50)” value was determined as 2350 ratio with Apolipoprotein E4 [2] and 2.75 ratio in the assay with mouse ApoE [3]. In addition, the EC50 in the assay with Apolipoprotein E4 [6] was 2.93 µg/mL; in the assay with Apolipoprotein E4 [7] it was 6890 µg/mL; with mouse ApoE [8], 0.573 µg/mL; with mouse ApoE [9] it was 1.58 µg/mL.
